Earlier results as cited in patent US8337823B2, “Modified macromolecule” (priority 2006, dated 2012).

conditions: pH 4 and pH 5

| Substance | stability of the conjugate in acidic conditions |
| --- | --- |
| α-methoxy-ω-(N-(2-methyl-s-octadedcyloxy-[1,3]dioxan-5-yl)-amido}-polyethyleneglycol110 | not stable |
| α-methoxy-ω-N-(2-octadecyloxy-[1,3]dioxolan-4-yl)methylamido}-polyethyleneglycol110 | good stability at both pH 4 and 5 |
| α-methoxy-ω-{N-2-(3-hydroxypropyl-cholesterylcarbamate)-2-methyl-[1,3]dioxan-5-yl-amido}-polyethyleneglycol110 | not stable |
| α-methoxy-ω-{N-(2-cholesteryloxy-[1,3]dioxolan-4-yl)methylamido)-polyethyleneglycol110 | very stable at pH 5 but moderately less stable at pH 4 |
